Positions count from the first letter of the chain named.
B1: AlaPro-mTGase from S. ladakanum (protein)
chain: APDSDERVTPPAEPLDRMPDPYRPSYGRAETIVNNYIRKWQQVYSHRDGRKQQMTEEQREWLSYGCVGVTWVNSGQYPTNRLAFAFFDEDKYKNELKNGRPRSGETRAEFEGRVAKDSFDEAKGFQRARDVASVMNKALENAHDEGAYLDNLKKELANGNDALRNEDARSPFYSALRNTPSFKDRNGGNHDPSKMKAVIYSKHFWSGQDRSGSSDKRKYGDPEAFRPDRGTGLVDMSRDRNIPRSPTSPGESFVNFDYGWFGAQTEADADKTVWTHGNHYHAPNGSLGAMHVYESKFRNWSDGYSDFDRGAYVVTFVPKSWNTAPDKVKQGWP
B2: GlyPro-mTGase from S. ladakanum (protein)
chain: B1 chain with A1G
B3: Met-mTGase from S. mobaraensis (protein)
chain: MDSDDRVTPPAEPLDRMPDPYRPSYGRAETVVNNYIRKWQQVYSHRDGRKQQMTEEQREWLSYGCVGVTWVNSGQYPTNRLAFASFDEDRFKNELKNGRPRSGETRAEFEGRVAKESFDEEKGFQRAREVASVMNRALENAHDESAYLDNLKKELANGNDALRNEDARSPFYSALRNTPSFKERNGGNHDPSRMKAVIYSKHFWSGQDRSSSADKRKYGDPDAFRPAPGTGLVDMSRDRNIPRSPTSPGEGFVNFDYGWFGAQTEADADKTVWTHGNHYHAPNGSLGAMHVYESKFRNWSEGYSDFDRGAYVITFIPKSWNTAPDKVKQGWP
B4: AlaPro-mTGase from S. mobaraensis (protein)
chain: APDSDDRVTPPAEPLDRMPDPYRPSYGRAETVVNNYIRKWQQVYSHRDGRKQQMTEEQREWLSYGCVGVTWVNSGQYPTNRLAFASFDEDRFKNELKNGRPRSGETRAEFEGRVAKESFDEEKGFQRAREVASVMNRALENAHDESAYLDNLKKELANGNDALRNEDARSPFYSALRNTPSFKERNGGNHDPSRMKAVIYSKHFWSGQDRSSSADKRKYGDPDAFRPAPGTGLVDMSRDRNIPRSPTSPGEGFVNFDYGWFGAQTEADADKTVWTHGNHYHAPNGSLGAMHVYESKFRNWSEGYSDFDRGAYVITFIPKSWNTAPDKVKQGWP
B5: GlyPro-mTGase from S. mobaraensis (protein)
chain: B4 chain with A1G
B6: mTGase from S. mobaraensis (protein)
chain: DSDDRVTPPAEPLDRMPDPYRPSYGRAETVVNNYIRKWQQVYSHRDGRKQQMTEEQREWLSYGCVGVTWVNSGQYPTNRLAFASFDEDRFKNELKNGRPRSGETRAEFEGRVAKESFDEEKGFQRAREVASVMNRALENAHDESAYLDNLKKELANGNDALRNEDARSPFYSALRNTPSFKERNGGNHDPSRMKAVIYSKHFWSGQDRSSSADKRKYGDPDAFRPAPGTGLVDMSRDRNIPRSPTSPGEGFVNFDYGWFGAQTEADADKTVWTHGNHYHAPNGSLGAMHVYESKFRNWSEGYSDFDRGAYVITFIPKSWNTAPDKVKQGWP
B7: Mature mTGase from S. ladakanum (protein)
chain: DSDERVTPPAEPLDRMPDPYRPSYGRAETIVNNYIRKWQQVYSHRDGRKQQMTEEQREWLSYGCVGVTWVNSGQYPTNRLAFAFFDEDKYKNELKNGRPRSGETRAEFEGRVAKDSFDEAKGFQRARDVASVMNKALENAHDEGAYLDNLKKELANGNDALRNEDARSPFYSALRNTPSFKDRNGGNHDPSKMKAVIYSKHFWSGQDRSGSSDKRKYGDPEAFRPDRGTGLVDMSRDRNIPRSPTSPGESFVNFDYGWFGAQTEADADKTVWTHGNHYHAPNGSLGAMHVYESKFRNWSDGYSDFDRGAYVVTFVPKSWNTAPDKVKQGWP
B8: Met-mTGase from S. ladakanum (protein)
chain: MDSDERVTPPAEPLDRMPDPYRPSYGRAETIVNNYIRKWQQVYSHRDGRKQQMTEEQREWLSYGCVGVTWVNSGQYPTNRLAFAFFDEDKYKNELKNGRPRSGETRAEFEGRVAKDSFDEAKGFQRARDVASVMNKALENAHDEGAYLDNLKKELANGNDALRNEDARSPFYSALRNTPSFKDRNGGNHDPSKMKAVIYSKHFWSGQDRSGSSDKRKYGDPEAFRPDRGTGLVDMSRDRNIPRSPTSPGESFVNFDYGWFGAQTEADADKTVWTHGNHYHAPNGSLGAMHVYESKFRNWSDGYSDFDRGAYVVTFVPKSWNTAPDKVKQGWP

target: hGHQ141N, P01241
Sequence (P01241 27-217 Q167N): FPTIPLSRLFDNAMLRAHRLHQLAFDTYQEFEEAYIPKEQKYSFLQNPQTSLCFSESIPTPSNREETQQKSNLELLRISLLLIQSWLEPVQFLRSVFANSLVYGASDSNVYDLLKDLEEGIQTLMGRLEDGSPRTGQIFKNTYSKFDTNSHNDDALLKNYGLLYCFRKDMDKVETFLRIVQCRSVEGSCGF

Row | Protein | Activity towards hGHQ141N (RFU/sec/µg), dansyl-cadaverine incorporation [RFU/sec/µg]
1 | B1 | 1.02
2 | B2 | 0.48
3 | B3 | 1.24
4 | B4 | 1.56
5 | B5 | 1.13
6 | B6 | 0.98
7 | B7 | 0.63
8 | B8 | 0.8

target: hGHQ40N, P01241
Sequence (P01241 27-217 Q66N): as the sequence (P01241 27-217 Q167N) above, with Q40N, N141Q counted along it

Row | Protein | Activity towards hGHQ40N (RFU/sec/µg), dansyl-cadaverine incorporation [RFU/sec/µg]
9 | B1 | 6.91
10 | B2 | 4.25
11 | B3 | 5.44
12 | B4 | 5.05
13 | B5 | 4.28
14 | B6 | 3.35
15 | B7 | 3.55
16 | B8 | 4.74

From US20100087371
